T1: zebrafish PIP5K1A kinase catalytic domain (residues 49-431), wild type (zebrafish, UniProt Q503I3 49-431)
T1 chain: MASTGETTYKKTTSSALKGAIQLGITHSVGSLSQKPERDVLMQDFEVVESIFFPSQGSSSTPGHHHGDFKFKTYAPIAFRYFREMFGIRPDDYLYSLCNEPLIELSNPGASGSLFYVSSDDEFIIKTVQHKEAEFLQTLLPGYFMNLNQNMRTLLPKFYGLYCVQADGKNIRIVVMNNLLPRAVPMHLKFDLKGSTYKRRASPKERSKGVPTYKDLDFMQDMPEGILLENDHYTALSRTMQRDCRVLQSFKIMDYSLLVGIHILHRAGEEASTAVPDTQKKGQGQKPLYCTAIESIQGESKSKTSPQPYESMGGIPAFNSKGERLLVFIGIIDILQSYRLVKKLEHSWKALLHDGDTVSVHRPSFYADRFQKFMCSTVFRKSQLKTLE

B1: zebrafish PIP5K1A kinase catalytic domain (residues 49-431), wild type (domain or fragment)
chain: T1 chain
notes: kinase catalytic domain of zebrafish PIP5K1Aα, residues 49-431; C-terminal 'Leu-Glu' that precedes the His6 tag; Dimer by SEC/MALLS and in the crystal; also called zPIP5K1A; PIP5K1A kinase domain; not shown: His6, C-terminal, kept
B2: GST-tagged DIX domain of mouse DVL1 (residues 1-106) with Y17D (domain or fragment, UniProt P51141 1-106, looked up)
chain: MAETKIIYHMDEEETPDLVKLPVAPERVTLADFKNVLSNRPVHAYKFFFKSMDQDFGVVKEEIFDDNAKLPCFNGRVVSWLVLAEGAHSDAGSQGTDSHTDLPPPL
notes: DIX domain of mouse DVL1, residues 1-106, Y17D to eliminate DIX aggregation; A longer construct 1-200 (DIX-L) is named in the methods but tied to no experiment; also called DVL DIX; GST-DVL; source: E. coli, purified (glutathione-agarose beads, size-exclusion chromatography)

Assays:
[1] = target: B2; test: cell-based or functional assay
[2] = target: the molecule itself; test: SEC-MALS; Superdex S-200 10/30 HR; 10 mM HEPES (pH 7.3), 300 mM NaCl, 5% glycerol, 0.01% TX-100; 0.5 ml/min
[3] = target: T2, zebrafish PIP5K1A kinase catalytic domain, triple D84R/L86A/V291A (DLV) mutant (zebrafish, UniProt Q503I3 49-431, D84R | L86A | V291A); test: pull-down; GST-DIX (or GST) 0.5 μg and His-tagged PIP5K1 0.5 μg in 200 μl of 10 mM HEPES (pH 7.4), 150 mM NaCl, 0.2% Triton, 0.01% SDS, 3 mM dithiothreitol, 10% glycerol; 4 °C overnight; glutathione beads; western blotting; conditions: both partners purified
T2 construct: kinase catalytic domain of zebrafish PIP5K1Aα, residues 49-431; C-terminal 'Leu-Glu' that precedes the His6 tag; Monomeric by SEC/MALLS; also called monomeric mutant DLV; TM-PIP5K; source: E. coli BL21-CodonPlus(DE3)-RIL, purified in the same way as the wild-type protein; not shown: His6, C-terminal, kept

[4] = target: B1; test: as above; conditions: both partners purified
[5] = target: T1, zebrafish PIP5K1A kinase catalytic …; test: ITC

fold activation of the lipid kinase activity by DIX [1] | binding result [3] | binding result [4] | Kd [5] | Binder | stoichiometry N [2]
3 fold |  |  |  | B1 | 2
 | binds | binds | 1200 nM | B2 | 

From article PMC4570271, “Resolution of structure of PIP5K1A reveals molecular mechanism for its regulation by dimerization and dishevelled” (Nature Communications, 2015)
